Reference: publication PMC3912200, “Structural and Functional Characterization of Cargo-Binding Sites on the μ4-Subunit of Adaptor Protein Complex 4” (PLoS ONE, 2014)

B1: APP peptide ENPTYKFFEQ (peptide)
peptide: ENPTYKFFEQ
notes: amyloid precursor protein (APP), stretch of the cytosolic tail with the YKFFE signal (Y687 to Q692 printed); numbers count on: APP695; also called APP sorting signal; source: synthetic peptide (New England Peptide)
B2: S257A: μ4 mutant, μ4-binding site, reported previously (protein, UniProt O00189 1-453, looked up, variant S257A)
AP-4 complex subunit mu-1: MISQFFILSSKGDPLIYKDFRGDSGGRDVAELFYRKLTGLPGDESPVVMHHHGRHFIHIRHSGLYLVVTTSENVSPFSLLELLSRLATLLGDYCGSLGEGTISRNVALVYELLDEVLDYGYVQTTSTEMLRNFIQTEAVVSKPFSLFDLSSVGLFGAETQQSKVAPSSAASRPVLSSRSDQSQKNEVFLDVVERLSVLIASNGSLLKVDVQGEIRLKSFLPSGSEMRIGLTEEFCVGKSELRGYGPGIRVDEVSFHASVNLDEFESHRILRLQPPQGELTVMRYQLSDDLPSPLPFRLFPSVQWDRGSGRLQVYLKLRCDLLSKSQALNVRLHLPLPRGVVSLSQELSSPEQKAELAEGALRWDLPRVQGGSQLSGLFQMDVPGPPGPPSHGLSTSASPLGLGPASLSFELPRHTCSGLQVRFLRLAFRPCGNANPHKWVRHLSHSDAYVIRI
B3: E265A: μ4 mutant, μ4-binding site, reported previously (protein, UniProt O00189 1-453, looked up, variant E265A)
AP-4 complex subunit mu-1: MISQFFILSSKGDPLIYKDFRGDSGGRDVAELFYRKLTGLPGDESPVVMHHHGRHFIHIRHSGLYLVVTTSENVSPFSLLELLSRLATLLGDYCGSLGEGTISRNVALVYELLDEVLDYGYVQTTSTEMLRNFIQTEAVVSKPFSLFDLSSVGLFGAETQQSKVAPSSAASRPVLSSRSDQSQKNEVFLDVVERLSVLIASNGSLLKVDVQGEIRLKSFLPSGSEMRIGLTEEFCVGKSELRGYGPGIRVDEVSFHSSVNLDEFASHRILRLQPPQGELTVMRYQLSDDLPSPLPFRLFPSVQWDRGSGRLQVYLKLRCDLLSKSQALNVRLHLPLPRGVVSLSQELSSPEQKAELAEGALRWDLPRVQGGSQLSGLFQMDVPGPPGPPSHGLSTSASPLGLGPASLSFELPRHTCSGLQVRFLRLAFRPCGNANPHKWVRHLSHSDAYVIRI
B4: R283A: μ4 mutant, μ4-binding site, reported previously (protein, UniProt O00189 1-453, looked up, variant R283A)
AP-4 complex subunit mu-1: MISQFFILSSKGDPLIYKDFRGDSGGRDVAELFYRKLTGLPGDESPVVMHHHGRHFIHIRHSGLYLVVTTSENVSPFSLLELLSRLATLLGDYCGSLGEGTISRNVALVYELLDEVLDYGYVQTTSTEMLRNFIQTEAVVSKPFSLFDLSSVGLFGAETQQSKVAPSSAASRPVLSSRSDQSQKNEVFLDVVERLSVLIASNGSLLKVDVQGEIRLKSFLPSGSEMRIGLTEEFCVGKSELRGYGPGIRVDEVSFHSSVNLDEFESHRILRLQPPQGELTVMAYQLSDDLPSPLPFRLFPSVQWDRGSGRLQVYLKLRCDLLSKSQALNVRLHLPLPRGVVSLSQELSSPEQKAELAEGALRWDLPRVQGGSQLSGLFQMDVPGPPGPPSHGLSTSASPLGLGPASLSFELPRHTCSGLQVRFLRLAFRPCGNANPHKWVRHLSHSDAYVIRI
B5: F255A: μ4 mutant, μ4-binding site, Y2H construct (protein, UniProt O00189 1-453, looked up, variant F255A)
AP-4 complex subunit mu-1: MISQFFILSSKGDPLIYKDFRGDSGGRDVAELFYRKLTGLPGDESPVVMHHHGRHFIHIRHSGLYLVVTTSENVSPFSLLELLSRLATLLGDYCGSLGEGTISRNVALVYELLDEVLDYGYVQTTSTEMLRNFIQTEAVVSKPFSLFDLSSVGLFGAETQQSKVAPSSAASRPVLSSRSDQSQKNEVFLDVVERLSVLIASNGSLLKVDVQGEIRLKSFLPSGSEMRIGLTEEFCVGKSELRGYGPGIRVDEVSAHSSVNLDEFESHRILRLQPPQGELTVMRYQLSDDLPSPLPFRLFPSVQWDRGSGRLQVYLKLRCDLLSKSQALNVRLHLPLPRGVVSLSQELSSPEQKAELAEGALRWDLPRVQGGSQLSGLFQMDVPGPPGPPSHGLSTSASPLGLGPASLSFELPRHTCSGLQVRFLRLAFRPCGNANPHKWVRHLSHSDAYVIRI
B6: L261S: μ4 mutant, μ4-binding site, Y2H construct (protein, UniProt O00189 1-453, looked up, variant L261S)
AP-4 complex subunit mu-1: MISQFFILSSKGDPLIYKDFRGDSGGRDVAELFYRKLTGLPGDESPVVMHHHGRHFIHIRHSGLYLVVTTSENVSPFSLLELLSRLATLLGDYCGSLGEGTISRNVALVYELLDEVLDYGYVQTTSTEMLRNFIQTEAVVSKPFSLFDLSSVGLFGAETQQSKVAPSSAASRPVLSSRSDQSQKNEVFLDVVERLSVLIASNGSLLKVDVQGEIRLKSFLPSGSEMRIGLTEEFCVGKSELRGYGPGIRVDEVSFHSSVNSDEFESHRILRLQPPQGELTVMRYQLSDDLPSPLPFRLFPSVQWDRGSGRLQVYLKLRCDLLSKSQALNVRLHLPLPRGVVSLSQELSSPEQKAELAEGALRWDLPRVQGGSQLSGLFQMDVPGPPGPPSHGLSTSASPLGLGPASLSFELPRHTCSGLQVRFLRLAFRPCGNANPHKWVRHLSHSDAYVIRI
B7: R283D: μ4 mutant, μ4-binding site, Y2H construct (protein, UniProt O00189 1-453, looked up, variant R283D)
AP-4 complex subunit mu-1: MISQFFILSSKGDPLIYKDFRGDSGGRDVAELFYRKLTGLPGDESPVVMHHHGRHFIHIRHSGLYLVVTTSENVSPFSLLELLSRLATLLGDYCGSLGEGTISRNVALVYELLDEVLDYGYVQTTSTEMLRNFIQTEAVVSKPFSLFDLSSVGLFGAETQQSKVAPSSAASRPVLSSRSDQSQKNEVFLDVVERLSVLIASNGSLLKVDVQGEIRLKSFLPSGSEMRIGLTEEFCVGKSELRGYGPGIRVDEVSFHSSVNLDEFESHRILRLQPPQGELTVMDYQLSDDLPSPLPFRLFPSVQWDRGSGRLQVYLKLRCDLLSKSQALNVRLHLPLPRGVVSLSQELSSPEQKAELAEGALRWDLPRVQGGSQLSGLFQMDVPGPPGPPSHGLSTSASPLGLGPASLSFELPRHTCSGLQVRFLRLAFRPCGNANPHKWVRHLSHSDAYVIRI

Experiments:
[1] = molecular target: T1, recombinant μ4 C-terminal domain, wild-type (Homo sapiens, UniProt O00189); experiment: Isothermal titration calorimetry with wild-type μ4; assay type: binding; conditions: canonical YXXØ signal peptides, 28°C, pH 7.4, stoichiometry and Kd N/D
T1 construct: recombinant C-terminal domain of human μ4 (residues 160-453); GST followed by TEV protease cleavage site (N, cleaved yes); made in house; host or cells: E. coli B834(DE3)pLysS
T1 sequence (O00189 160-453): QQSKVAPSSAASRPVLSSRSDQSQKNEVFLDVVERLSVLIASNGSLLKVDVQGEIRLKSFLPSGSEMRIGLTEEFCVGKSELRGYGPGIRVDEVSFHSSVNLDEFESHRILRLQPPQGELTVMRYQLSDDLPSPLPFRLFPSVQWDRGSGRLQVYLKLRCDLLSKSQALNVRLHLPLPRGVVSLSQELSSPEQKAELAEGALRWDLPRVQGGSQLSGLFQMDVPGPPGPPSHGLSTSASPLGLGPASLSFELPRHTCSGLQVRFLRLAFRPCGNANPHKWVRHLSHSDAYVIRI
Method: Recombinant μ4 C-terminal variants were dialyzed overnight at 4°C against excess ITC buffer (50 mM Tris-HCl, pH 7.4, 150 mM NaCl), and an APP peptide ([sequence]), a CD63 peptide (SGYEVM), or a TGN38 peptide (SDYQRL; New England Peptide, Gardner, MA) were also prepared in ITC buffer. All ITC experiments were carried out at 28°C using an iTC200 instrument (GE Healthcare). […] Titration curves were analyzed using Origin software (MicroCal). The binding constant corresponding to each μ4 construct was calculated by fitting the curves to a one-site model.
Isothermal titration calorimetry of recombinant C-terminal domain of wild-type μ4 with the TGN38 SDYQRL peptide (C), or the CD63 SGYEVM peptide (D).

C-terminal domain of μ3A = conditions: previously shown; ref [18]; cited from earlier work
Source text: (§1) This tyrosine-based signal is related to the YXXØ motif, which is the signal contained in the cytosolic tail of transmembrane proteins that binds to a different site on the μ2 subunit of AP-2 [28], or on the μ3A subunit of AP-3 [30]. In this study, we wanted to determine whether this putative second binding site on μ4, referred here as the μ2-binding site (Figure 1, A and B), played any role in the binding to the YKFFE signal of APP ...

[2] = molecular target: T2, recombinant C-terminal domain of human μ4-D190S (human, UniProt O00189 160-453, D190S); experiment: ITC; 28°C, 50 mM Tris-HCl pH 7.4, 150 mM NaCl; chamber 250–500 µM μ4 construct, peptide 2.5–5.0 mM in 16 injections; one-site model; conditions: both partners purified
T2 construct: also called D190S mutant; source: E. coli B834(DE3)pLysS, purified (glutathione-Sepharose 4B, TEV cleavage, Ni-NTA, Superdex 200); not shown: GST, N-terminal, cleaved
T2 sequence (looked up): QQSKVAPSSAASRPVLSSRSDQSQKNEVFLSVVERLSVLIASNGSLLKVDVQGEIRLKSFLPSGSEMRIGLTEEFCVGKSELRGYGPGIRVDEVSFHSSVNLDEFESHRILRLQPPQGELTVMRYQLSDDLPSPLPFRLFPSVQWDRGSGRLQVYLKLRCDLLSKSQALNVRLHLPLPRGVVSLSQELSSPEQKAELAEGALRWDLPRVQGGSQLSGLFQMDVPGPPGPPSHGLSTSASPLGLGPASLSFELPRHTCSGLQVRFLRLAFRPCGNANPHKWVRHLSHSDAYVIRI

cytosolic tail of APP = conditions: mutations at μ4-binding site; previously identified; ref [18]; cited from earlier work
Source text: as §1

Molecule	effect of mutation on binding to the APP YKFFE signal (cytosolic tail of APP)	further results
SDYQRL [TGN38 SDYQRL peptide, peptide bearing the canonical YXXØ signal of TGN38]		interaction (ITC) [1]: undetectable; binding to C-terminal domain of μ3A (C-terminal domain of μ3A): bind well
SGYEVM [CD63 SGYEVM peptide, peptide bearing the canonical YXXØ signal of CD63]		interaction (ITC) [1]: undetectable; binding to C-terminal domain of μ3A (C-terminal domain of μ3A): bind well
B1		binding result [2]: binds
B2	null effect	
B3	null effect	
B4	null effect	
B5	sensitivity	
B6	sensitivity	
B7	sensitivity	
